Source: patent US20220162291A1 (DUKE UNIVERSITY, published 2022)
Numbering of substitutions follows the chain as printed.

B1: 33B8 (antibody, V domains shown)
VH: EVKLVESGGGLVQPGGSLSLSCATSGFTFTDYYMNWVRQPPGKALEWLGFIRNKANGYTTEYSASVKGRFTISRDNSQSILYLQMNSLRAEDSATYYCACGNYVGYAMDYWGQGTSVTVSS
VL: DIVMSQSPSSLAVSAGEKVTMSCKSSQSLLNSRTRKNYLAWYQQKPGQSPKLLIYWASTRESGVPDRFTGSGSGTDFTLTISSVQAEDLAVYYCKQSYNLYTFGGGTKLEIKR
notes: Recombinant mouse IgG (made as IgG1 and IgG2c)
B2: 22D10 (antibody, V domains shown)
VH: DVQLQESGPALVKPSQTVSLTCTVTGYSITNGNHWWNWIRQVSGSKLEWLGYIRSSGSSDSNPSLKSRISITRDTSKNQLFLHLNSMTTEDIATYYCARGGGLRHYFDYWGQGTTLTVSS
VL: DIQMTQSPASLSASVGDTVTITCRASGNIHNYLAWYHQKQGKSPQLLVYHAETLTDGVPSRFSGSGSGTQYSLKINSLQPEDFGSYYCQHFWSTPYTFGGGTKLEIKR
notes: as for B1
B3: HSV010-4 (antibody, V domains shown)
VH: QVQLKESGPGLVAPSQSLSITCTVSGFSLSRHDVSWVRQPPGKGLEWLGVIWGDGSTNYHSALISRLSISKDNSKSQVFLKLNSLQNDDTATYYCAKEDYGIFPYWGQGTLVTVSA
VL: DIKMTQSPSSMYASLGEKVTITCKASQDISSYLSWFQQKPGKSPKTLIYRANRLVDGVPSRFSGSGSGQDYSLSISSLDYEDMGIYYCLQYDEFPLTFGAGTKLELKR
notes: Mouse monoclonal IgG
B4: HSV010-28 (antibody, V domains shown)
VH: QIQLVQSGPELKKPGETVKISCKASGYTFTTYGMSWVKQAPGKGLKWMGWINTYSGVSTYADDFKGRFAFSLETSASTAYLQINNLKNEDTATYFCAQVNYAMDYWGQGTSVTVSS
VL: DIVMTQSHKFLSTSVGDWVTITCKASQDVSTAVAWFQQKPGQSPKVLIYSASYRYTGVPDRFTGSGSGTDFTFTISSVQAEDLAVYYCQQHYSTPRTFGGGTKLEIKR
notes: Mouse monoclonal IgG
B5: HSV010-7 (antibody, V domains shown)
VH: QVQLQQSGPELVKPGASVKLSCKASGYTFTNYDINWVKQRPGQGLEWIGWIYPRDGSTKYNEKFKGKATLTIDTSSSTAYMELHSLTSEDSAVYFCARGIFYVNYDVYWGQGTLVTVSA
VL: DIQMTQSSSFLSVSLGGRVTITCKASDHINNWLAWYQQKPGHAPRLLISGAASLETGVPSRFSGSGSGKDYTLTITSLQTEDVATYYCQQYWSSPLTFGGGTKLELKR
notes: Mouse monoclonal IgG
B6: HSV010-34 (antibody, V domains shown)
VH: EVQLVESGGGLVQPGESLKLSCESNEYEFPSHDMSWVRKTPEKRLELVAAINSDGGSTYYPDTMERRFIISRDNTKKTLYLQMSSLRSEDTALYYCARHSSGYVLDYWGQGTSVTVSS
VL: B5 VL with F10Y, N31H, H42N, A52T, T74S, T76A, S94T, L96Y, L106I
notes: Mouse monoclonal IgG

biological target: T1, glycoprotein B of HSV-1 (gB-1) (HSV-1, UniProt P10211 31-730); test: Luminex multiplex assay on gB-1-conjugated microspheres
Experimental: The gB-1 binding of the antibodies was determined by Luminex multiplex assay. Mixtures of antigen (gB-1)-conjugated microspheres (1,000 counts each) were added to each well of 96-well filter plates (Millipore). […] Samples were diluted in PBS containing 1% cow milk, 1% BSA, 0.05% Tween 20 and 0.05% NaN₃. After washing, PE goat anti-mouse IgG was added to the plates and incubated for 1 hour at room temperature with mild agitation. After washing, microspheres were resuspended in PBS containing 1% BSA, 0.05% Tween 20 and 0.05% NaN₃ and fluorescent signals from each microsphere were measured in a Bio-Plex® 3D machine.

| Binder | binding result |
| --- | --- |
| B1 | no binding |
| B2 | no binding |

biological target: T1, glycoprotein B of HSV-1 (gB-1); test: Luminex bead competition on gB-1; competitor BMPC-23 human IgG at 2 ng/ml

| Binder | percent inhibition at 222 ng/ml |
| --- | --- |
| B3 | > 95% |
| B4 | 30% |
| B5 | > 90% |
| B6 | > 80% |
